From article PMC5623693, “Rb‐independent E2F3 promotes cell proliferation and alters expression of genes involved in metabolism and inflammation” (FEBS Open Bio, 2017)
Each block holds one molecule with its values, some of them ahead of it. No end group written: not given here. *: point of attachment. 5‑TAMRA = CN(C)c1ccc2c(-c3ccc(C(=O)*)cc3C(=O)[O-])c3ccc(N(C)C)cc3[o+]c2c1

Experiments:
Assay in all cases: fluorescence polarisation; TAMRA-labeled peptide (100 nM stock, 1 uL in 10 uL final) with purified protein serially diluted 1:2; 20 mM HEPES, 100 mM KCl, 0.1% Tween-20, 5 mM DTT, pH 7.8; 20 min in the dark at room temperature; Kd by Michaelis-Menten equation, least-squares nonlinear regression
[1] = biological target: Tamra-labeled E2F1 WT peptide (human)
[2] = biological target: Tamra-labeled E2F1-mutant peptide (L415Q) (human)
GST-pRb (aa379-928) = biological target: T1, GST-pRb (aa379-928) (UniProt P06400 379-928); conditions: both partners purified
T1 construct: retinoblastoma protein pRb, residues 379-928
T1 sequence (looked up): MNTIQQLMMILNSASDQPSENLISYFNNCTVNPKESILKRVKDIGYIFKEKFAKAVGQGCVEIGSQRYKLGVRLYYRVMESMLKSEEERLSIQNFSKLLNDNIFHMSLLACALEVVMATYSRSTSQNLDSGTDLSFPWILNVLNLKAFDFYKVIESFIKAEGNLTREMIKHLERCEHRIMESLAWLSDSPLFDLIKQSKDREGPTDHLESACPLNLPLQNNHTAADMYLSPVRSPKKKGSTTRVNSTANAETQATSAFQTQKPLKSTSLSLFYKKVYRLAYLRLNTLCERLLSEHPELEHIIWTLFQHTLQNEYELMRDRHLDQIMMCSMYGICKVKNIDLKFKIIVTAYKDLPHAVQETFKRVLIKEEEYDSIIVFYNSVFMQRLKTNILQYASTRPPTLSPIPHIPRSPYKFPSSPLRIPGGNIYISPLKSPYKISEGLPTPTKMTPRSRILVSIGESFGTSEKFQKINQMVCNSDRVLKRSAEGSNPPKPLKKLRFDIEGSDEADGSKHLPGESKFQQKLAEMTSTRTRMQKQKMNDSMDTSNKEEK

Kd [1]: 7 µM | Kd [2]: 200 µM
Molecule: HIS-p107 (aa379-1104) (domain or fragment)

Kd (GST-pRb (aa379-928)): ~3 µM
B1: Tamra-labeled E2F1 WT peptide (peptide)
peptide: {5‑TAMRA}-EALDYHFGLEEGEGIRDLFDCDFG
notes: L415 is the ninth letter; also called WT E2F1 peptide; E2F1 C-terminal peptide; source: synthetic peptide (United BioSystems)

Kd (GST-pRb (aa379-928)): 20 µM
B2: Tamra-labeled E2F1-mutant peptide (L415Q) (peptide)
peptide: {5‑TAMRA}-EALDYHFGQEEGEGIRDLFDCDFG
notes: also called E2F1 L415Q peptide; LQ; source: synthetic peptide (Peptide 2.0)
